# Laboratory results taken from article PMC5389562.
# Target: T1, mCherry-U2AF35 (UniProt Q01081)
# T1 sequence: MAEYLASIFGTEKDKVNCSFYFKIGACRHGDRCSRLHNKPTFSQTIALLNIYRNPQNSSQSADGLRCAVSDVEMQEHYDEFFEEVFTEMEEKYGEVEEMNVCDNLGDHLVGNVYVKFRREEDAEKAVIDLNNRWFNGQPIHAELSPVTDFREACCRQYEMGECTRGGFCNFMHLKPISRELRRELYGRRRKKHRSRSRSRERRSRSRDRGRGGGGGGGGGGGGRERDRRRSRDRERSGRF
# Assay: single-molecule colocalization/bleaching
# Settings: 5' GMPS; HEK293T nuclear extract expressing fusion proteins, preincubated 15 min with ATP/phosphocreatine or ATP-depleted at 30 C; pre-mRNA 62.5 nM; +ATP reactions …
substance,measurement,value
GloC pre-mRNA,binding signal (% RNA colocalized),20
